The source of these data is paper PMC8178401.

The target of assay [1] is MsSepF_(core) (C-terminal FtsZ-binding core of Methanobrevibacter smithii SepF, residues 54-149) (Methanobrevibacter smithii). The assay can be described thus: not stated; MsSepFcore in solution (Supplementary Fig. 6); method not given.
The target is the same in assay [2]. The assay is described as follows: SPR; Biacore T200, 25 °C, 150 mmol/L NaCl, 25 mmol/L Hepes pH 8; MsSepFcore amine-coupled on CM5 (3200 and 5000 RU), FtsZCTD peptide flowed over; steady-state fit; apparent Kd.

Chain of MsSepF_(core) (C-terminal FtsZ-binding core of Methanobrevibacter smithii SepF, residues 54-149) (Methanobrevibacter smithii) (main, as listed by the source): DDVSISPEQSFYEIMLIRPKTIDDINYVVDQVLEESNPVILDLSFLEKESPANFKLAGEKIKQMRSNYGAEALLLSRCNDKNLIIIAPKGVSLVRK

A word on the stoichiometry N: it is a count of units in the complex or per binding partner. In assay [1], “MsSepF_(core) (C-terminal FtsZ-binding core of Methanobrevibacter smithii SepF, residues 54-149) (domain or fragment)” returned a stoichiometry N of 2.

B1: FtsZCTD peptide (C-terminal domain of Methanobrevibacter smithii FtsZ) (peptide)
peptide: NEDQLDDFIDGIF
For B1, the Kd in assay [2] was determined as 84 µM.
